Assay results from patent US20240294617A1 (Ablynx, published 2024).
Each block holds one binder with its values, some of them ahead of it.

Assays:
[1] = target: T1, human serum albumin (Sigma-Aldrich A3782) (human, UniProt P02768 25-609); experiment: SPR (ProteOn), HSA immobilised, 500 nM injected, dissociation at pH 6.0
T1 construct: Bought protein; also called HSA; human SA

[2] = target: T1, human serum albumin (Sigma-Aldrich …); experiment: SPR (ProteOn), HSA immobilised, 500 nM injected, dissociation at pH 5.0
[3] = target: T2, rat serum albumin (Sigma-Aldrich A4538) (rat, UniProt P02770 25-608); experiment: SPR (ProteOn XPR36), SA immobilised, pH 7.4
T2 construct: Bought protein; also called rat SA

[4] = target: T3, mouse serum albumin (Albumin Bioscience 2601) (mouse, UniProt P07724 25-608); experiment: SPR (ProteOn XPR36), SA immobilised, pH 7.4
T3 construct: Bought protein; also called mouse SA

[5] = target: T4, dog serum albumin (Abcam 119814) (dog, UniProt P49822 25-608); experiment: SPR (ProteOn XPR36), SA immobilised, pH 7.4
T4 construct: Bought protein; also called dog SA

[6] = target: T5, guinea pig serum albumin (Gentaur GPSA62) (guinea pig); experiment: SPR (ProteOn XPR36), SA immobilised, pH 7.4
T5 construct: also called guinea pig SA

[7] = target: T6, cynomolgus monkey serum albumin (generated in-house) (cynomolgus monkey, UniProt A2V9Z4 25-608, limits assumed); experiment: SPR (ProteOn XPR36), SA immobilised, pH 7.4
T6 construct: also called cyno SA

[8] = target: T7, pig serum albumin (Sigma-Aldrich A4414) (pig, UniProt P08835 25-607); experiment: SPR (ProteOn XPR36), SA immobilised, pH 7.4
T7 construct: Bought protein; also called pig SA

[9] = target: T1, human serum albumin (Sigma-Aldrich …); experiment: SPR (ProteOn XPR36), SA immobilised, pH 7.4
[10] = target: T1, human serum albumin (Sigma-Aldrich …); experiment: SPR (ProteOn), HSA immobilised, 500 nM injected, dissociation at pH 7.4
[11] = target: T1, human serum albumin (Sigma-Aldrich …); experiment: competition ELISA on coated HSA

koff [1]: 6.7e-05 s⁻¹ | koff [2]: 7.5e-05 s⁻¹ | Kd [3]: 0.012 nM | koff [3]: 1.5e-05 s⁻¹ | kon [3]: 1.2e+06 M⁻¹ s⁻¹ | Kd [4]: 0.016 nM | koff [4]: 1.5e-05 s⁻¹ | kon [4]: 940000 M⁻¹ s⁻¹ | Kd [5]: 2.8 nM | koff [5]: 0.0025 s⁻¹ | kon [5]: 900000 M⁻¹ s⁻¹ | Kd [6]: 0.059 nM | koff [6]: 5.6e-05 s⁻¹ | kon [6]: 940000 M⁻¹ s⁻¹ | Kd [7]: 0.016 nM | koff [7]: 1.4e-05 s⁻¹ | kon [7]: 830000 M⁻¹ s⁻¹ | Kd [8]: 290 nM | koff [8]: 0.036 s⁻¹ | kon [8]: 120000 M⁻¹ s⁻¹ | Kd [9]: 0.046 nM | koff [9]: 3.7e-05 s⁻¹ | kon [9]: 790000 M⁻¹ s⁻¹ | koff [10]: 6e-05 s⁻¹
B1: serum albumin binder of SEQ ID NO:19 (invention) (VHH)
VHH: EVQLVESGGGVVQPGGSLRLSCAASGSTISSYVMGWFRRAPGKEREFVAAISRSGGYTYYADSVKGRFTISRDNSKKTAYLQMNSLRPEDTALYYCAAGRYSAWYSQSYEYDYWGQGTLVTVSS
notes: Monovalent Nanobody; also called T023500043

binding result [11]: binds
B2: His6Flag3-SEQ ID NO:20 (VHH, not shown: small tags and cut ends)
VHH: EVQLVESGGGVVQPGGSLRLSCAASGSNISSYVMGWFRRAPGKEREFVAAISRSGGYTYYADSVKGRFTISRDNSKKTAYLQMNSLRPEDTALYYCAAGRYSAWYSQSYEYDYWGQGTLVTVSS
